# Source: patent US20190127480A1 (Regeneron, published 2019)
# Key:
# [1] = biological target: T1, Soluble heterodimeric CD3 protein (hCD3-epsilon/hCD3-delta) with either a human Fc tag (hFcΔAdp/hFc) or a … (human, UniProt P07766 23-126; P04234 22-105); experiment: SPR Biacore 25C antibody-capture
# T1 construct: also called hCD3ε/δ; not shown: Fc tag: human (hFcΔAdp/hFc)
# Experimental: (§1) Measurements were conducted on a T200 Biacore™ instrument.
# Soluble heterodimeric CD3 protein (hCD3-epsilon/hCD3-delta; SEQ ID NOs:1652/1653) with either a human Fc tag (hFcΔAdp/hFc; SEQ ID NOs:1683/1684) or a mouse Fc tag (mFcΔAdp/mFc; SEQ ID NOs:1685/1686) was injected over the antibody captured surface and the binding response was recorded. Heterodimeric CD3 protein was purified using the method described in Davis et al. (US2010/0331527).
# (§2) Kinetic association (kₐ) and dissociation (kd) rate constants were determined by processing and fitting the data to a 1:1 binding model using Scrubber 2.0 curve fitting software. Binding dissociation equilibrium constants (KD) and dissociative half-lives (t₁₁₂) were calculated from the kinetic rate constants as: KD (M)=kd/kₐ; and t_{1/2} (min)=(ln 2/(60*kd). NT=not tested; NB=no binding observed.
# [2] = biological target: T1, Soluble heterodimeric CD3 protein …; experiment: SPR Biacore 25C antigen-capture
# Experimental: as §1
# In the antigen-capture format, heterodimeric CD3 protein was captured using a rabbit anti-mouse Fc or mouse anti-human Fc and the respective antibodies were injected over the captured antigen.
# as §2
# T1 sequence (P07766 23-126 limits assumed, stated change not applied, chain 1 of 2): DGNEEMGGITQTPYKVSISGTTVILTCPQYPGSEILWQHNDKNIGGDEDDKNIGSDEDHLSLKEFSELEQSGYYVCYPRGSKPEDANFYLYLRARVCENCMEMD
# T1 sequence (P04234 22-105 limits assumed, stated change not applied, chain 2 of 2): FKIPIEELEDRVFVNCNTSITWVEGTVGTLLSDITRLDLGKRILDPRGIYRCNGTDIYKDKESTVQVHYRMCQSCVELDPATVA
Binder,Kd [1] [nM],T½ [1] [min],koff [1] [s⁻¹],kon [1] [M⁻¹ s⁻¹],Kd [2] [nM],T½ [2] [min],koff [2] [s⁻¹],kon [2] [M⁻¹ s⁻¹]
"H1H5778P (antibody, human IgG1, V domains shown, H1H: human IgG1 Fc; divalent) VH: EVQLVESGGGLVQPGRSLRLSCVASGFTFADFTMHWVRQAPGKGLEWVSGISWNSNSIDYADSVKGRFTISRDNAKKSLFLQMSSLRAEDTALYYCVKDRSGYSRFYYGMDVWGQGTTVTVSS VL: EIVMTQSPATLSVSPGERAILSCRASQNINSNLAWYQQKPGQAPRLLIYGASTRATGVPARFSGSGSGTEFTLTIRSLQSEDFAVYYCQQYYNWPITFGHGTRLEIK",27.8,75,0.000154,5520,0.0856,338,3.42e-05,399000
"H1H5781P (antibody, human IgG1, V domains shown, H1H: human IgG1 Fc; divalent) VH: EVQLVESGGGLVQPGRSLRLSCAASGFTFDDFTMHWVRQAPGKGLEWVSDISWNSGSIDYADSVKGRFTISRDNARNSLFLQMSSLRTEDTASYYCIKDKSGYGSYNYGLDVWGQGTTVTVSS VL: EIVLTQSPGTLSLSPGDRATLSCRASQSVSSIYLAWYQQKPGQAPRLLIHGASTRATGIPDRFSGSGSGTDFTLTISRLEPEDFALYYCHQRVSSPYTFGQGTKLEIK",57.7,23,0.000497,8610,1.92,43,0.000268,140000
"H1H5786B (antibody, human IgG1, V domains shown, H1H: human IgG1 Fc; divalent) VH: QVQLVESGAEVKKPGASVKVSCKTSGYTFTGYYMHWIRQAPGQGLEWMGWINPKSGGTNYAQKFQGRVTMTRDTSISTAYMELSRLRSDDMAVYYCARMGDGAVFDFWGQGTLVTVSS VL: AIQMTQSPSSLSASVGDRVTITCRASQRISSFLNWYQQKPGKAPKLLIYTASNLQNGVPSRFSGSGSGTDFTLTISSLQPEDFATYYCQQSYRTPLTFGGGTKVEIKR",85.4,11,0.00108,12600,0.141,27,0.000424,3e+06

# The next lines start with the values.
Kd [1] [nM],T½ [1] [min],koff [1] [s⁻¹],kon [1] [M⁻¹ s⁻¹],Kd [2] [nM],T½ [2] [min],koff [2] [s⁻¹],kon [2] [M⁻¹ s⁻¹],Binder
28.3,22,0.000517,18200,0.254,49,0.000236,925000,"H1H5790B (antibody, human IgG1, V domains shown, H1H: human IgG1 Fc; divalent) VH: EVQLVESGGGVVQPGRSLRLSCAASGFTFSYYGMHWVRQAPGKGLEWVAVISFDGKNKYYADSVMGRFTISRDNSKNTLYLQMNSLRAEDSAVFFCARSYDILTGYGAGYSYHYGMDVWGQGTTVTVSS VL: AIQMTQSPSSLSASVGDRVTITCRASQRISSFLNWYQQKPGKAPKLLIYTASNLQNGVPSRFSGSGSGTDFTLTISSLQPEDFATYYCQQSYRTPLTFGGGTKVEIKR"
72.5,15,0.00079,10900,0.433,34,0.00034,786000,"H1H5791B (antibody, human IgG1, V domains shown, H1H: human IgG1 Fc; divalent) VH: QVQLVESGAEVKKPGASVKVSCKTSGYTLSGYYMHWMRQAPGQGLEWMGWINPKSGVTNYAQKFQDRVAMTRDTSISTAYMELSRLRSDDTAVYYCARMGDGAVFDFWAQGTLVTVSS VL: DIQLTQSPSSLSASVGDRVTITCRASQRISSFLNWYQQKPGKAPKLLIYTASNLQNGVPSRFSGSGSGTDFTLTISSLQPEDFATYYCQQSYRTPLTFGGGTKLEIKR"
44.7,30,0.000382,8540,0.333,73,0.000159,478000,"H1H5793B (antibody, human IgG1, V domains shown, H1H: human IgG1 Fc; divalent) VH: QVQLVQSGTEVKKPGASMKVSCKASGYTFTGYYIHWVRQAPGQGLEWMGWINPNSDVTKYAQKFQGRVTLTRDTSISAAYIDLSRLRSDDTAIYYCARMGDGAVFDYWGQGTLVTVSS VL: DIQLTQSPSSLSASVGDRVTITCRASQRISSYLNWYQQKPGKAPKVLISVASSLQSGVPSRFSGSGFGTDFTLTISSLQPEDSASYYCQQSYNTPLTFGGGTKLEIKR"
